The DeepSol protein solubility set

Assay: soluble on expression in E. coli; label from the status in PepcDB or PDB records

Row | Sequence | soluble on expression in E. coli
1 | MSEKTMGPRQSRPGILTPAQERVAQAIARLGPEISLTDISRMVGGHPNASRQHIKTLENSGYISATQKRGAAGRPAQLYSITPEGLRALAGNATLIAHTSFVRSLSHYIANQPHPEERALALGSQMVRDEGPLPGATKVDKVVNLLEKYGFAPTQAGTEIQLLTCPVLDSAVRHPEVVCTMHRGILNEITGNNTTFILEPFARPGMCVIRTVSPTANPTQT | not soluble
2 | KRATQFTASILSLYNSEQMLQKTDPMSVISSAMVAATLDLPIDKNLGYAWIVPYGGKAQFQLGYKGYIQLALRTGQYKSINCIPIHEGELQKWNPLTEEIEIDFEKRESDAVIGYAAYFELINGFRKTVYWTKAQVEKHKKKFSKSDFGWKNDWDAMALKTVLKAVLSKWGILSVEMQKAVIEEDETRERIDITNEADSSEIIDSE | soluble
3 | MGSDKIHHHHHHMIYCDHCVMPNTRPGINFTKDKEGKNICSACINHKNKENIDYKARFKELEVLCDKYRRMNGKFEYDCAIAVSGGKDSHFQVHIMKEKLGMNPILFSVEDNFTMTEAGKKNLKNLSETFGCHIISLKPDIKTQKKVMLKTFEKYGKPTWFIDRLIYSYPFAMALKFNTPLLVYGENVSYEYGGSDTEETPSAKEIFLNGVASDLNINEFIDDEIKEENLQLFFNPNKDKLDKLNPIYLSYFVKWNSYSNYIFAKSRGFTDLEGEWDRTMCAENFDQVDSIGYILHAWMKYPKFGHACASDYAARFVRYGLLSRKEAIELVQKRDHKLDNKCVEDFCNFIGISKTTFWKIVEKHYNMDLFYKNDFGEFKLKNKLQ | not soluble
4 | MGSDKIHHHHHHMVGIILASHGEFAKGILQSGAMIFGDQENVQAVTLMPSEGPDDVKAKMKDAIASFDNQDEVLFLVDLWGGTPFNQANSLFEEHKDKWAIVAGMNLPMVIEAYGARLSMESAHEIAASIISTAKEGVKVKPEELEPEDAGKASQGSAKQSNTGAPGSFEYVLARIDSRLLHGQVATAWTKAMQPTRIIVVSDAVAKDELRKKLIQQAAPPGVKAHVVPINHMIKLAKDDQHFGGQRAMLLFENPEDVLRVVEGGVPLKTINVGSMAHSTGKVQPNKVLAFNQEDIDTFNKLKQSGLTFDVRKVPNDSKGNMDEIIKKAQDELNKQK | not soluble
5 | MGSDKIHHHHHHMINYTELEENIKKNNIENVYIMCGFNEKLMKESINKILKKSISQDFESLNYSVFDGNEVEFEDILNACETVPFMSEKRMVVVYRAGFLNDNSSGSNKNSDKLIKDIEKYVPNVPKHCILVMYYVFDNTREKPSYRVKKFDKKVCVVEFSKLRGMQFQKKVKDVFAEKGKQIGKTELNYFCSRVENNMDIVYNEIEKLCCYTLEKEITKESIDNLLQPNETDDIFNLVDYISQSKPEMAITVLNEIMYKGVKANSILYMVERQFKLMLSIKIGIENKQSKEALVKELKLNPYVCDKMINECKRFTMKKILKSLDICLRTEKELKSVSGDPKFKMEVLIINLAII | not soluble
6 | MSLRTTESEKGLRMPGLPPMVAPPAEQVDDPVTATDAANAVDAVLRGVLDERLRHCRAVDPLFARELADRLAALTARGGKRLRTAFAHCGWRAAGGSGDATAVLRTGAALELLQACALVHDDVMDGSVQRRGAPALHVDLARGHWAAGMHGSSESFGTSAAVLTGDLALAWADDLLTETALGTPHGPRLHGEWRAMRTEMVAGQYRDLHAQAARSSGVDEALAIATLKSALYTVARPLALGAVLAGAADGDALEALRAAGRCAGLAFQLRDDLLGAFGDPALTGKPADDDLRSRKLTYLLAVAVRLADAADDHLAAAALAPDADPKSEKAVRQVRSALVRTGARDLVETKIGELTDMSLAHFDRCGARPAVRHEFAALIGRATGAVPRGTGEVVEGHHHHHH | soluble
7 | MTHSQQSMVDTFRASLFDNQDITVADQQIQALPYSTMYLRLNEGQRIFVVLGYIEQEQSKWLSQDNAMLVTHNGRLLKTVKLNNNLLEVTNSGQDPLRNALAIKDGSRWTRDILWSEDNHFRSATLSSTFSFAGLETLNIAGRNVLCNVWQEEVTSTRPEKQWQNTFWVDSATGQVRQSRQMLGAGVIPVEMTFLKPAPLEHHHHHH | soluble
